Data taken from patent US20260158064A1 (NANJING PROBIO BIOTECH, published 2026).

Assays:
[1] = target: human ROR1 Kringle-His domain protein (amino acid sequence at positions 308-395, Acrobiosystems, RO1-H5223) (human) (UniProt Q01973); test: indirect ELISA, antigen coated at 1 ug/ml
[2] = target: human ROR1-His protein (fused with a His protein tag, Acrobiosystems, RO1-H522y) (human) (UniProt Q01973); test: indirect ELISA, antigen coated at 1 ug/ml
[3] = target: human ROR1 expressed on CHO cells (CHO-K1/Human ROR1 stable cells) (human) (UniProt Q01973); test: flow cytometry, 10 ug/ml antibody on Human ROR1-CHO-K1 cells (curve 1), fluorescent secondary antibody
[4] = target: mouse ROR1 expressed on CHO cells (CHO-K1/Mouse ROR1 stable cells) (mouse) (UniProt Q9Z139); test: flow cytometry, 10 ug/ml antibody on Mouse ROR1-CHO-K1 cells (curve 2), fluorescent secondary antibody
[5] = target: human ROR1 expressed on CHO cells (CHO-K1/Human ROR1 stable cells) (human) (UniProt Q01973); test: flow cytometry, 10 ug/ml on Human ROR1-CHO-K1 cells (curve 1), fluorescent secondary antibody
[6] = target: mouse ROR1 expressed on CHO cells (CHO-K1/Mouse ROR1 stable cells) (mouse) (UniProt Q9Z139); test: flow cytometry, 10 ug/ml on Mouse ROR1-CHO-K1 cells (curve 2), fluorescent secondary antibody
[7] = target: human ROR1 expressed on CHO cells (CHO-K1/Human ROR1 stable cells) (human) (UniProt Q01973); test: flow cytometry, 10 ug/ml on Human ROR1-CHO-K1 cells (curve 1), fluorescent secondary antibody; remark: listed apart in the source
[8] = target: mouse ROR1 expressed on CHO cells (CHO-K1/Mouse ROR1 stable cells) (mouse) (UniProt Q9Z139); test: flow cytometry, 10 ug/ml on Mouse ROR1-CHO-K1 cells (curve 2), fluorescent secondary antibody; remark: listed apart in the source
[9] = target: human ROR1 expressed on the engineered cell line CHO-K1/ROR1 (human) (UniProt Q01973); test: flow cytometry of CHO-K1_ROR1 cells stained with the PE-labelled antibody; the ROR1- gate prints 0.75
[10] = target: human ROR1 expressed on the engineered cell line CHO-K1/ROR1 (human) (UniProt Q01973); test: flow cytometry of CHO-K1_ROR1 cells stained with the PE-labelled antibody; the CHO-K1 row of the same box prints 20.8
[11] = target: T1, human ROR1 Kringle-His domain protein (amino acid sequence at positions 308-395, Acrobiosystems, RO1-H5223) (human, UniProt Q01973 308-395); test: indirect ELISA, antigen coated at 1 ug/ml
T1 construct: also called Human ROR1 Kringle-His protein; recombinant human ROR1 Kringle-His protein; not shown: His tag
Experimental: (§1) Indirect ELISA was used to assess the binding capability of the above purified antibodies to human ROR1-related recombinant proteins. ELISA plates (Nunc) were coated with 1 μg/ml of human ROR1-His protein, human ROR1 Frizzled-His domain protein, and human ROR1 Kringle-His domain protein in 100 μl/well of CBS overnight at 4° C. The plates were washed with PBS-T (0.05% Tween) and blocked with 300 μl/well of PBS containing 3% skim milk at 37° C. for 1 hour. Subsequently, the blocking solution was discarded, and 100 μl of purified antibody at 8 μg/ml (about 100 nM) was added to the first well and diluted according to a 3-fold gradient to obtain a total of 11 test concentration gradients. The plates were then incubated for 1 hour at room temperature. The plates were washed 3 times with PBST and incubated with 100 μl/well of horseradish peroxidase-conjugated mouse anti-human IgG Fc fragment (GenScript) for 0.5 hours at 37° C. The plates were washed five times with PBST, a TMB chromogenic solution (GenScript) was then added, and the plates were incubated for 15 minutes at room temperature in the dark. The reaction was stopped by adding 50 μl of 1 M HCl stop solution (Sigma). The plates were read at 450 nm using a microplate reader. FIGS. 1-3 show the results of the ELISA experiment on the binding of 8 positive recombinant antibody clones to ROR1-related antigen proteins, and the EC₅₀ for each antibody is as shown in Table 2 below: the antigen binding capacity of the antibodies tested was all equal to or higher than that of the positive reference antibody R11-scFv.

[12] = target: T2, human ROR1-His protein (fused with a His protein tag, Acrobiosystems, RO1-H522y) (human, UniProt Q01973 30-403); test: indirect ELISA, antigen coated at 1 ug/ml
T2 construct: also called recombinant human ROR1-His protein; not shown: His tag
Experimental: as §1

[13] = target: T3, mouse ROR1 expressed on CHO cells (CHO-K1/Mouse ROR1 stable cells) (mouse, UniProt Q9Z139 30-937); test: flow cytometry, antibody at 10 ug/ml on CHO cells
T3 construct: whole, on cells
Experimental: CHO cells expressing human and mouse ROR1 and parental cells as the negative control for detection were collected and washed 3 times with PBS. 2.5×10⁵ test cells and 100 μl of purified antibody at 10 μg/ml were added to a 96-well plate, and the plate was incubated at 4° C. for 1 hour. The cells were then washed 3 times with PBS, 100 μl of iFluor-labeled goat anti-human IgG, an Fcγ-specific fragment antibody, was added, and the plate was incubated at 4° C. for 45 minutes. Finally, the cells were washed 3 times with PBS, and the signals were read using FACS BD Calibur.

[14] = target: human ROR1 Frizzled-His domain protein (amino acid sequence at positions 165-305, Acrobiosystems, RO1-H5222) (human) (UniProt Q01973); test: indirect ELISA, plate coated with human ROR1 Frizzled-His, HRP anti-human IgG Fc, OD450
human ROR1 Frizzled-His domain protein (amino acid sequence at positions 165-305, Acrobiosystems, RO1-H5222) (human), sequence (Q01973 165-305 limits assumed, form in doubt): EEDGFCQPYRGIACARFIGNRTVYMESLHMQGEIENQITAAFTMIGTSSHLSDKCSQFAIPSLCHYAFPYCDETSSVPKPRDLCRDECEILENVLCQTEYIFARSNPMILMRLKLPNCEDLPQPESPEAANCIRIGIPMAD

mouse ROR1 expressed on CHO cells (CHO-K1/Mouse ROR1 stable cells) (mouse), sequence (Q9Z139 30-937): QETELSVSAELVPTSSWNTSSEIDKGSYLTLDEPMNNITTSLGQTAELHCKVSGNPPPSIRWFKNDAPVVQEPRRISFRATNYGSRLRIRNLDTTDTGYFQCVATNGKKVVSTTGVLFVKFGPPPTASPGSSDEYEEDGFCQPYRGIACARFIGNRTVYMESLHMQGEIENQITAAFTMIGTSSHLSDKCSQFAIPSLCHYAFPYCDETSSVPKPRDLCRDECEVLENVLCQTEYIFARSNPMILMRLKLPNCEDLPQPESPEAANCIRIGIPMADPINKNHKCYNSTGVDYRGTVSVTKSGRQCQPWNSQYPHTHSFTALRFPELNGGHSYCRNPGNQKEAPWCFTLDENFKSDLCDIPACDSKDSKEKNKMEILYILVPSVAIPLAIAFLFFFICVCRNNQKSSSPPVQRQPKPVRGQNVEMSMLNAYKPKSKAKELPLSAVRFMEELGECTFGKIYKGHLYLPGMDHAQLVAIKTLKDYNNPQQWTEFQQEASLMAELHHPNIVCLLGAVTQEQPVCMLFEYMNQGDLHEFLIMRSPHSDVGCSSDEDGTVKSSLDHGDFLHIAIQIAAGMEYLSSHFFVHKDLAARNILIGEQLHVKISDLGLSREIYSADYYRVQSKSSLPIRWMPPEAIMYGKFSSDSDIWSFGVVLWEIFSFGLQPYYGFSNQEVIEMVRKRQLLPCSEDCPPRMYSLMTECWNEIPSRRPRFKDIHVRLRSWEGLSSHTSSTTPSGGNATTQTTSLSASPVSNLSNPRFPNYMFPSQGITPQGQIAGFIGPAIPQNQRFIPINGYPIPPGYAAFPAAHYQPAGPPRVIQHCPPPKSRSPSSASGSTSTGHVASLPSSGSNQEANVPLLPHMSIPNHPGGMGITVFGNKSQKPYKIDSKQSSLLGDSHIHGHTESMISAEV
human ROR1 expressed on CHO cells (CHO-K1/Human ROR1 stable cells) (human), sequence (Q01973 30-937): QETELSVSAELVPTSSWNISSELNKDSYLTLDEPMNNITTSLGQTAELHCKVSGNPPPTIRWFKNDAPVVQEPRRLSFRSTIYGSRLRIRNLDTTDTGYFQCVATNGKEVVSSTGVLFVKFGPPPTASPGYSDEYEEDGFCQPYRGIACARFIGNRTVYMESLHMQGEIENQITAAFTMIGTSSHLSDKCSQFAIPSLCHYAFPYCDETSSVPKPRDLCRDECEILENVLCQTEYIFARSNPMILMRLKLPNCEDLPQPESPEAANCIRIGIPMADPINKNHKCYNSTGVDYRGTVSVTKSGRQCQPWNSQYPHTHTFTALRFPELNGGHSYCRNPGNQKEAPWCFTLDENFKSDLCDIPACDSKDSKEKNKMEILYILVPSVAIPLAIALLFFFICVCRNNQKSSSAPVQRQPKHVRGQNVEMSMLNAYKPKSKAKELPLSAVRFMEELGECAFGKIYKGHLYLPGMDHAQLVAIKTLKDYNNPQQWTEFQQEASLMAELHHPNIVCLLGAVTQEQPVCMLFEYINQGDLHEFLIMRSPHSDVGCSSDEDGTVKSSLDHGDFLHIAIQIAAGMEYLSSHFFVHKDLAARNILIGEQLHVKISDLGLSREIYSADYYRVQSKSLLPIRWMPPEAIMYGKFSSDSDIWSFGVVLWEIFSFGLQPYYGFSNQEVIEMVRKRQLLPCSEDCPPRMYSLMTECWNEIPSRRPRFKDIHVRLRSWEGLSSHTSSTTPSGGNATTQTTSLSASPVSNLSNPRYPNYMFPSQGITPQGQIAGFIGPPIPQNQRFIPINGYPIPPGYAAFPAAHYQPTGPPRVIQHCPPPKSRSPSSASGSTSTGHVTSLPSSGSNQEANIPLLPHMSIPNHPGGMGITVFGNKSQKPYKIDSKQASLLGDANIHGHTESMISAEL
T1 sequence (Q01973 308-395 limits assumed, form in doubt): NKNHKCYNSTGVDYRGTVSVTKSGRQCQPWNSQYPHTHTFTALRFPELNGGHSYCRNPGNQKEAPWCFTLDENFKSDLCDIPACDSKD
T3 sequence (Q9Z139 30-937): as the sequence (Q9Z139 30-937) above
T2 sequence (Q01973 30-403 limits assumed): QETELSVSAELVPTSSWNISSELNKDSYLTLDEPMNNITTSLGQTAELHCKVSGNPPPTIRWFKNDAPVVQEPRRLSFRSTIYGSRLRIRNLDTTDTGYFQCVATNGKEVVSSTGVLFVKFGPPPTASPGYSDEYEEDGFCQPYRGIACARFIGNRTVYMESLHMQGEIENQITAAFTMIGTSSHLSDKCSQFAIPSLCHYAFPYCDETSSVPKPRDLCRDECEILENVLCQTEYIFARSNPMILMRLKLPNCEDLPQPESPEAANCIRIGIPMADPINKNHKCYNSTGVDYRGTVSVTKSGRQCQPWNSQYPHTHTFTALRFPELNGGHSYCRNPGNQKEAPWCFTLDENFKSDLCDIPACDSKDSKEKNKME
human ROR1 Kringle-His domain protein (amino acid sequence at positions 308-395, Acrobiosystems, RO1-H5223) (human), sequence (Q01973 308-395 limits assumed, form in doubt): as the sequence (Q01973 308-395 limits assumed, form in doubt) above
human ROR1-His protein (fused with a His protein tag, Acrobiosystems, RO1-H522y) (human), sequence (Q01973 30-403 limits assumed): as the sequence (Q01973 30-403 limits assumed) above

## Positive reference antibody R11-scFv
[1]
  EC50: 1.17 µg/mL
[2]
  EC50: 0.104 µg/mL

## Positive Ab- Cirmtuzumab (antibody)
[3]
  Geometric Mean : Alexa Fluor 647-H: 69000
[4]
  Geometric Mean : Alexa Fluor 647-H: 32600

## Human IgG (antibody)
[5]
  Geometric Mean : Alexa Fluor 647-H: 137
[6]
  Geometric Mean : Alexa Fluor 647-H: 93.3
[7]
  Geometric Mean : Alexa Fluor 647-H: 286
[8]
  Geometric Mean : Alexa Fluor 647-H: 135

## PE anti-human ROR1 Antibody (BioLegend, Cat #357804)
[9]
  ROR1+ gate, percent of cells: 99.2
[10]
  Median : PE-H: 13100

B1: single domain antibody AHP16026 (Fc fusion)
chain: QVQLVESGGGLVQPGGSLRLSCAVLGSIEQINDINYYRWYRQPPGKQRDLVASINNSGELIYADSVKGRFFISRDKYTVYLEMRSLKAEDTAVYYCNAQDRGEYWGRGTQVTVSS
notes: VHH expressed from pcDNA3.4-Fc (HuIgG1); not shown: human IgG1 Fc of the pcDNA3.4-Fc (HuIgG1) expression vector
[11]
  EC50: 1.91 µg/mL

B2: single domain antibody AHP15580 (Fc fusion)
chain: QVQLVESGGGVVQPGGSLRLSCAASGFVLRVNTVSWYRQAPGKQRELVALITSESNEYYDDSVKGRFTISRDNAKNTIYLHMNSLKPEDTGVYFCNFITTWGQGTQVTVSS
notes: as for B1
[12]
  EC50: 0.0407 µg/mL
[11]
  EC50: 0.0294 µg/mL
[13]
  binding result: binds

B3: single domain antibody AHP15768 (Fc fusion)
chain: QVQLVESGGGSVQAGGSLRLSCAVSGRSISLYNMGWFRQAPGKEREFVSAINWSGGRTYYADSVKGRFTISRNNAKNTMYLQMNSLKPEDTATYYCAVDVEGWFRVSGDAAGYDYWGQGTQVTVSS
notes: as for B1
[12]
  EC50: 0.0203 µg/mL
[13]
  binding result: binds
[14]
  EC50 (read off the curve): 0.1 µg/mL
